Results taken from the domain aggregation screens of Martell et al. (2025).

Test: soluble fraction after stress (log2 fold change); higher = more stays soluble; pooled small domains, quantitative proteomics
Settings: stress: 50 degC
How it was run: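 Each library was heated to 50°C as a stress step. The libraries, made up of small protein domains, were pooled and analysed at high throughput by quantitative proteomics. The reported value is the base-two logarithm of the fold change in each protein's soluble amount after stress, taken as a measure of aggregation propensity. The higher the value, the more protein stays in solution.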

Sequence	soluble fraction (log2)
HMEVSLEDKMDYLTNYATTHKNFSFRNLLESSSGKIEVIVTFLAILELMKMGRINISQEHIFDDIIIESRI	-2.53
HMEVSTRQVRAALRDIIEAEDKKRPLSDEAITARLREQGLPVARRTVAKYREQMGILAARLRK	-0.309
HMEVVRVEPGATVRDLGEALGVPPTRIIQILMGLGEMKTVTQTLSTEEIELVAEELGRRVEV	0.135
HMEWVVVPDVRRQLLPEAQRRVNKARLRLEVAGGWPAEPLLAMVVDQKPGPETRVPLNSIVVVVVRNLP	-0.0473
HMEYELYALKEEVLKRLTREDRELLILLFEERRTIHAVAQRLGLSDSAVYKRRTQLVNKVKVIASMLM	-2.13
HMEYKNYYDSPVGRLELLSDGVSLTAVLFENQQGDGTREENTSLAIFKEATQWLDAYFKGDNPEITIPL	0.0756
HMEYKTGIINTNKVRVRNAADADATVIFAINKDIKVKILAEENGFYKIGVSVKNRGNGEDLIGFVKKELIT	-0.631
HMEYQTVEKSEAEQIIQELEKAERLALKVYSKNDIITGISVSDGKSYYFSAELVPMLKNIIENPEIKIL	-0.623
HMEYRVRDKMTDILELLTEHRGRIALRDAFPTGTREELLAAFLALLELTKMQTVIVYQDRLYDDIQIVMK	-0.204
HMEYSTLEIYSQTKKDLIEKSPHLNKVVYDKDDGYIYLLSFEKEDDLTSFKSNIENDSDIKRIEANV	0.0917
HMEYTVNRLAQISGVSKRTLRYYDEIGLLRPERVNPNGYRIYGQMQVDLLQQILFYRELGLPLEEIREII	-0.467
HMFAATGVVNAPSGLVLRETASKGGNPLATVPDKAQVEIVEEDGEWYKVKVNEQTGYLFAEFVNKTE	0.0336
HMFAQDQLFKKDNSKVDVKILEINTTEIKYKLFTYQDGPTITVAKKDVALIIYQNGVHEVIT	-2.15
HMFAVPAPEVDDILSEKKVDVLLLGPQVRYLLEQFTEKLKDKNIPIGVIPMVDYGMMNGSKVLALAEELIG	-0.0132
HMFDFGNHLRMLREKHGISQEELGRRVGRAGSVISNYENNIKIPTLDVLTTMARIYDVSLDYLVG	-1.36
HMFDFNNLSSLSDVELSVYRFVVNNPEKVAYMRVRDIAQKTHVANSSVMRFVHKIGFASFPEFKAYLKNIN	-1.03
HMFDITKEVLKQSGLYNLYKNDESLEGINRIQNIEELLNGIKDFVENNEKSQASVSSFLQDVALATDQ	0.126
HMFDKVSVNNLAEAIGRLDGIYQDVLRLYYVHELPSKEIGKILNINHLTVNTRLKRAREKLFKMLKEE	-2.57
HMFDNPLSERDKEILNHISMGKSNKEIANQVGLAEQTIKNTISVILDKTFTSNRAQAASMATKNKW	0.547
HMFDPTDLPEKQLMVYEIIKSNNGINMTNIASLLGFNKTTVDNAIRALKKKEIVVFKGTNRSGGYFNT	-1.66
HMFEDEYLETMYAFYETDPQALVRTGDLASSLKVSPASATEMVQRLASKGFVDYIPYKGASLTELGLAM	-0.184
HMFEDYLRMKGLSIVSFSKQTGIPISTLRNLNKIRYDKWKIRYLEELSNVLNKTIQEIIEELKNMG	-2.32
HMFEFFKGIYSISLLKKDGIFFVTFKDENKEAVKHIFPEKPTALELGIKVMEMFEYKERYDGII	-0.227

Sequence	soluble fraction (log2)
HMFEPLTDREREVLQALADGLSDKEIAERLYISPATVRTHITAILGKLDANSRLQAVVVAARHNLVTL	-0.0803
HMFERISELLTDEELAVYKRGRNANASSVPKHADIADYRRATGVEALFGYLYIKGEIDRINQLFELA	-0.23
HMFESQYIGKIATAITDISAFSGRLKIYDENWEARTLGEDAPEIKKGAKVKIVRHDDLTMFVEKK	-0.034
HMFETLVLALAQAWPAERGPVEALQFEGGRLSLQRSGFADEQVEALRQRLSSEGWTLQTEQGRLILNKAG	-0.884
HMFFDSDTDIQNALNAENSIKKYQLFRTQTLYNSAQSDIDFVNQPEVKAKLFDALENLKNKLGFLAEPT	-0.247
HMFGIEIPEEAGKLQDYTLTDDDLEGGNTLKEIQFPQGARVVIIRRDDKFIIPDGSVELQSGDQLLIIYGE	-0.578
HMFGSKDVKRAIEDYAAAMSSQPRALSAPQRKVLIRHLATSGLLQLRGAAKIVADELGISRASVYNALKV	-0.436
HMFHDPTMEETLINLKGITNEVLSLLSSSKIKKLEDLAEMSVPELRDIVENISDEEASALIMEARKPWF	-0.446
HMFHGEGVQANNIQAYIVLKMAAVNGAEDALDTADEVSEKMSREDLETATQVLGQIFRKYLMELQSA	-1.2
HMFIKVEVPDLTGMTLTEVRKALEEKNLKMGDIRPAGQTSLVAKVINQSPQAKMVVDEYSEVSIQFEE	-0.217
HMFIMQTVALGSEGPDVRALQSILNRIGYNAGTVDGIFGSRTRQAVIAFQRNNGLAADGVAGPATWG	0.122
HMFINITAITGNNYNTPDAARNALPNTYNKKIGLVFTYRDLTNRYRVYLYNSETSNYIPLDSYM	-3.39
HMFIPGDSVRVHVKVVEGSNERIQMFEGVVIARQGSGVRENFTVRRISYGVGIERTFPVHSPRL	0.103
HMFISVDGLIHMGRTHLVILGGVEFARGDMIPETGEVVKSIGADSVVLELPDTGMRRTLNFV	-2.92
HMFKINNIIVSGLSEKSNLQTSEEIKNILFENIFFIKKDVLFKILEKNNLINSFEIKKIYPDTIEVKIKKT	0.153
HMFKITNTLNKTAEVYLTIPENKKGKGKIMISVNGAFHELEAMTENDKIQSGAVVKVVRIENDNILIVET	-1.88
HMFKMRVNGKEVIGMAITAKPQANPIDVADEIKKFVIDANTKLPSTMKLEVLYDATGIFRASISEVIS	-0.273
HMFLDKDTLNQLYRFGIALTGNEQDSQDVLHTAIERFLRNKPQQINQQAAYIRTIMRNYWYDELRKLKTQ	-1.61
HMFLPETEVKSFFHRGITKISPSLAMDIADFFRMPFAVILKRALALEVISDEQYRSFMTVKPEHV	-0.014
HMFLSQQDINRANAASVTDMGDIIRRTFERNAAEINGLELSDAEKKDAVKQMATLATTALKTAAGAVNPY	-0.132
HMFLSSEERRERIIEVLRQQDEVTVVELSHRLGVSEVTTRKDLQQLEEQGYLTRVRGGAVVSGRGQL	-0.0183
HMFMNFAEHLMALRKQRGWSQEELGSQIGVTRQTVSKWEMGQSTPELEKLVELSRLFGMSIDQLVGL	0.0203
HMFNISEKLKKYRNALGLTQTEVAEKIEITKPTYASYEKGKDISIGTLKKLADLFEVSFESFFSE	-0.168

Sequence	soluble fraction (log2)
HMFNLFPHLSVLRNITLAPQKVKGLNRSESNEIAMSLLERVGIPEQSDKFPSQLSGGQQQRVAIARALAM	-0.402
HMFPELSEEEQIIVSLLQKQPDGLQINTLVVESNIPVNRMSGILFELEMKGIIRMAAGGVYRLL	-0.203
HMFQEGLVAPPAYTRPESFRGWEVPEILRSGNFPAIAKWQHEESLRLTRERRPAMLEAYERRT	0.121
HMFQNYTDAVVVASKTFFYNMPDESTRKSAYLIQGDRIMVEKSQRNFVYVTFTNEASGRTTTGWLKSDDLE	-2.9
HMFSDDEINRLKARDSILVNLRDSEKQVWELYTDGKTVQNIANQLNKHKQSISATIINIKNKISRKQNMLK	-0.534
HMFSGVQLGQAISEAIKRKNVSQKEVADHFGVKQPSVSGWIKNGRIDKKHLDKLIDYFSDVVTPSHFGIE	0.246
HMFSQDQIFLRSGEKIDARVIEVTPEFIKYKSKANPEGPLYSKKITDVLLITYANGTTEVYE	-0.00684
HMFTDAEIKQFAAAAVEVTKIQQDSTISAADKQPKMLAVVQSSGLPPEKFNQIGQAAAADPALQQRIQA	0.156
HMFTEPQKLVKRILNMLGHRYDDASIQARSDFQASNNYHKVQVKKKRESMEEYTAWLEEMYDAYRIN	-1.43
HMFTFEDMDKFESLLTTGLTDVQRRIYSLVTHDGKEYDLIAETLGISVEAVRMHMSRARKKIRENYKKID	-2.42
HMFTIGENIRDLRLERAITQEQLAEQLNVSAPAVSKWERGEAYPDITLVPKLAEILGVSTDKLFGVD	-0.0643
HMFTKYSPDFKLSVILDMRKNNLGYGEVVRKYWNLDSYKESDRHRSQVRLWERIFLEEGVEGFM	-4.64
HMFTLDDLQATYDIFERAEQNSDAMLAFQKVITAEGLDFDLTSPQGIVDFFKGAAPTEIYDLYEAS	-0.403
HMFTNSTSSRQLTNSDDTLRLNISSQTRQMLPNGQPFGGSLSGKLLLVIYGATTRSIPAQTTPEKIVV	-0.134
HMFTSVDVAPDLRTAKVFYSVLGRKKSDKEINIAINQKRKAFKKFMGPELHLKNIPDLHFYYD	-0.232
HMFTYDLSERELTIIELVAKGLNNKELADTLFLSEGTIRNYLSTLLNKLDLRDRTQLAIFYYQHL	-2.62
HMFVEEGSLKKITFDTYEFNITDNLKSLRVTYQGLLPNLFREGQGVVIEGILLEQNYIQANTVF	0.22
HMFVTGTTIKKLREEKRMTQGELAQMIGVSDKAVSKWETGRGLPDISLLEPLSRALGISVAELFAGQH	-0.0392
HMFWEGYLAARREQFLKDQQVLLGNEFRSNPDFWLEVASKEWAVVEERLSTGADVSEEVQETMGLDF	-2.16
HMFYNSSDNAYKILEINKSATVDEIKAAYRKMAKKYHPDKVIHLGQEHQKGAEEKFRQVQEAYEELQKERG	0.0887
HMGAAVEVISLRYRSAAELLPIVRSLLSTEGKISADERTNSLIIVDSDEAVARVIHSLATLDT	-0.125
HMGADGIPGKNGENGETSYVHFAYATSADGKTGFSTTDTVGKTYMGQYADFEKADSEDPTKYRWGKFQGP	0.102
HMGAFAIHTASELSAGMRIRHERFGPGVITGIDTANPASGARIQVDFDNGTSKTLLLSYAKFQI	-0.622
